This assay concerns proteins that co-immunoprecipitated with DUX4-CTD constructs expressed in MB135 myoblasts. The experiment in a line: LC-MS of proteins co-immunoprecipitated with DUX4-CTD (Table 1) and western validation. It counts as binding, human. Also noted: key to 4. mL1dL2 + Dox + IFNG / 4. + IFNG mix / 4. longCTD + Dox + IFNG / 3. + IFNg + Dox longCTD / 3. + Dox longCTD / 3. + IFNG longCTD: peptide-spectrum matches (PSMs) per protein. To be noted: kind of count not given; for 4. mL1dL2 + Dox + IFNG: LC-MS value per protein co-immunoprecipitated with DUX4-CTD construct mL1dL2 in MB135 myoblasts; for 4. + IFNG mix: LC-MS value per protein co-immunoprecipitated from MB135 myoblasts, + IFNG mix sample (no Dox). In outline: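 FLAG-tagged DUX4-CTD expressed in doxycycline-induced MB135 myoblasts, some also IFNG-treated; nuclear lysates in pH 7.4 NP-40 IP buffer were pre-cleared, then anti-FLAG immunoprecipitated 3 h at 4 °C. For LC-MS, FLAG-peptide elution, in-gel trypsin digest, Orbitrap analysis; proteins with ≥2 PSMs in both experiments categorised and ranked by total PSMs.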

B1: EEF1D (protein)
chain: MEAPLGSILSPCPGRAATGRAGTGRVGTGLRPPAVLQLCPLLAFYRCVRKMRSGKASCTLETVWEDKHKYEEAERRFYEHEATQAAASAQQLPAEGPAMNGPGQDDPEDADEAEAPDGGSRRDPRKSQDSRKPLQKKRKRSPKSGLGPADLALLGLSAERVWLDKSLFDQAESSYRQKLADVAAQAAWPPALAPWGLCTHGNQVACHHVTWGIWVNKSSFDQAERAFVEWSQALLLAPDGSRRQGTPNTGQQVAVPDLAHQPSPPVNGQPPLGSLQALVREVWLEKPRYDAAERGFYEALFDGHPPGKVRLQERAGLAEGARRGRRDRRGRNILGNKRAGLRRADGEAPSALPYCYFLQKDAEAPWLSKPAYDSAECRHHAAEALRVAWCLEAASLSHRPGPRSGLSVSSLRPNRKMATNFLAHEKIWFDKFKYDDAERRFYEQMNGPVAGASRQENGASVILRDIARARENIQKSLAGSSGPGASSGTSGDHGELVVRIASLEVENQSLRGVVQELQQAISKLEARLNVLEKSSPGHRATAPQTQHVSPMRQVEPPAKKPATPAEDDEDDDIDLFGSDNEEEDKEAAQLREERLRQYAEKKAKKPALVAKSSILLDVKPWDDETDMAQLEACVRSIQLDGLVWGASKLVPVGYGIRKLQIQCVVEDDKVGTDLLEEEITKFEEHVQSVDIAAFNKI
In the case of B1, the “4. mL1dL2 + Dox + IFNG” value came to 7.

B2: KRT71 (protein)
chain: MSRQFTCKSGAAAKGGFSGCSAVLSGGSSSSFRAGSKGLSGGFGSRSLYSLGGVRSLNVASGSGKSGGYGFGRGRASGFAGSMFGSVALGPVCPTVCPPGGIHQVTVNESLLAPLNVELDPEIQKVRAQEREQIKALNNKFASFIDKVRFLEQQNQVLETKWELLQQLDLNNCKNNLEPILEGYISNLRKQLETLSGDRVRLDSELRNVRDVVEDYKKRYEEEINKRTAAENEFVLLKKDVDAAYANKVELQAKVESMDQEIKFFRCLFEAEITQIQSHISDMSVILSMDNNRNLDLDSIIDEVRTQYEEIALKSKAEAEALYQTKFQELQLAAGRHGDDLKNTKNEISELTRLIQRIRSEIENVKKQASNLETAIADAEQRGDNALKDARAKLDELEGALHQAKEELARMLREYQELMSLKLALDMEIATYRKLLESEECRMSGEFPSPVSISIISSTSGGSVYGFRPSMVSGGYVANSSNCISGVCSVRGGEGRSRGSANDYKDTLGKGSSLSAPSKKTSR
Take B2: the “4. mL1dL2 + Dox + IFNG” value is on record as 21.

B3: MYL12A (protein)
chain: MDLTTTMSSKRTKTKTKKRPQRATSNVFAMFDQSQIQEFKEAFNMIDQNRDGFIDKEDLHDMLASLGKNPTDEYLDAMMNEAPGPINFTMFLTMFGEKLNGTDPEDVIRNAFACFDEEATGTIQEDYLRELLTTMGDRFTDEEVDELYREAPIDKKGNFNYIEFTRILKHGAKDKDD
Consider B3, for which the “4. + IFNG mix” value amounted to 9 and the “4. mL1dL2 + Dox + IFNG” value is 30.

B4: HNRNPM (protein)
chain: AAGVEAAAEVAATEIKMEEESGAPGVPSGNGAPGPKGEGERPAQNEKRKEKNIKRGGNRFEPYANPTKRYRAFITNIPFDVKWQSLKDLVKEKVGEVTYVELLMDAEGKSRGCAVVEFKMEESMKKAAEVLNKHSLSGRPLKVKEDPDGEHARRAMQKVMATTGGMGMGPGGPGMITIPPSILNNPNIPNEIIHALQAGRLGSTVFVANLDYKVGWKKLKEVFSMAGVVVRADILEDKDGKSRGIGTVTFEQSIEAVQAISMFNGQLLFDRPMHVKMDERALPKGDFFPPERPQQLPHGLGGIGMGLGPGGQPIDANHLNKGIGMGNIGPAGMGMEGIGFGINKMGGMEGPFGGGMENMGRFGSGMNMGRINEILSNALKRGEIIAKQGGGGGGGSVPGIERMGPGIDRLGGAGMERMGAGLGHGMDRVGSEIERMGLVMDRMGSVERMGSGIERMGPLGLDHMASSIERMGQTMERIGSGVERMGAGMGFGLERMAAPIDRVGQTIERMGSGVERMGPAIERMGLSMERMVPAGMGAGLERMGPVMDRMATGLERMGANNLERMGLERMGANSLERMGLERMGANSLERMGPAMGPALGAGIERMGLAMGGGGGASFDRAIEMERGNFGGSFAGSFGGAGGHAPGVARKACQIFVRNLPFDFTWKMLKDKFNECGHVLYADIKMENGKSKGCGVVKFESPEVAERACRMMNGMKLSGREIDVRIDRNA
Take B4: the “4. mL1dL2 + Dox + IFNG” value is listed as 3.

B5: ATP2B1 (protein)
chain: GDMANNSVAYSGVKNSLKEANHDGDFGITLAELRALMELRSTDALRKIQESYGDVYGICTKLKTSPNEGLSGNPADLERREAVFGKNFIPPKKPKTFLQLVWEALQDVTLIILEIAAIVSLGLSFYQPPEGDNALCGEVSVGEEEGEGETGWIEGAAILLSVVCVVLVTAFNDWSKEKQFRGLQSRIEQEQKFTVIRGGQVIQIPVADITVGDIAQVKYGDLLPADGILIQGNDLKIDESSLTGESDHVKKSLDKDPLLLSGTHVMEGSGRMVVTAVGVNSQTGIIFTLLGAGGEEEEKKDEKKKEKKNKKQDGAIENRNKAKAQDGAAMEMQPLKSEEGGDGDEKDKKKANLPKKEKSVLQGKLTKLAVQIGKAGLLMSAITVIILVLYFVIDTFWVQKRPWLAECTPIYIQYFVKFFIIGVTVLVVAVPEGLPLAVTISLAYSVKKMMKDNNLVRHLDACETMGNATAICSDKTGTLTMNRMTVVQAYINEKHYKKVPEPEAIPPNILSYLVTGISVNCAYTSKILPPEKEGGLPRHVGNKTECALLGLLLDLKRDYQDVRNEIPEEALYKVYTFNSVRKSMSTVLKNSDGSYRIFSKGASEIILKKCFKILSANGEAKVFRPRDRDDIVKTVIEPMASEGLRTICLAFRDFPAGEPEPEWDNENDIVTGLTCIAVVGIEDPVRPEVPDAIKKCQRAGITVRMVTGDNINTARAIATKCGILHPGEDFLCLEGKDFNRRIRNEKGEIEQERIDKIWPKLRVLARSSPTDKHTLVKGIIDSTVSDQRQVVAVTGDGTNDGPALKKADVGFAMGIAGTDVAKEASDIILTDDNFTSIVKAVMWGRNVYDSISKFLQFQLTVNVVAVIVAFTGACITQDSPLKAVQMLWVNLIMDTLASLALATEPPTESLLLRKPYGRNKPLISRTMMKNILGHAFYQLVVVFTLLFAGEKFFDIDSGRNAPLHAPPSEHYTIVFNTFVLMQLFNEINARKIHGERNVFEGIFNNAIFCTIVLGTFVVQIIIVQFGGKPFSCSELSIEQWLWSIFLGMGTLLWGQLISTIPTSRLKFLKEAGHGTQKEEIPEEELAEDVEEIDHAERELRRGQILWFRGLNRIQTQIRVVNAFRSSLYEGLEKPESRSSIHNFMTHPEFRIEDSEPHIPLIDDTDAEDDAPTKRNSSPPPSPNKNNNAVDSGIHLTIEMNKSATSSSPGSPLHSLETSL
As to B5, the “4. + IFNG mix” value is 10 and the “4. mL1dL2 + Dox + IFNG” value is 11.

B6: RRBP1 (protein)
chain: MDIYDTQTLGVVVFGGFMVVSAIGIFLVSTFSMKETSYEEALANQRKEMAKTHHQKVEKKKKEKTVEKKGKTKKKEEKPNGKIPDHDPAPNVTVLLREPVRAPAVAVAPTPVQPPIIVAPVATVPAMPQEKLASSPKDKKKKEKKVAKVEPAVSSVVNSIQVLTSKAAILETAPKEVPMVVVPPVGAKGNTPATGTTQGKKAEGTQNQSKKAEGAPNQGRKAEGTPNQGKKTEGTPNQGKKAEGTPNQGKKAEGTPNQGKKAEGAQNQGKKVDTTPNQGKKVEGAPTQGRKAEGAQNQAKKVEGAQNQGKKAEGAQNQGKKGEGAQNQGKKAEGAQNQGKKAEGAQNQGKKAEGAQNQGKKAEGAQNQGKKAEGAQNQGKKAEGAQNQGKKVEGAQNQGKKAEGAQNQGKKAEGAQNQGKKAEGAQNQGKKAEGAQNQGKKAEGAQNQGKKAEGAQNQGKKAEGAQNQGKKVEGAQNQGKKAEGAQNQGKKAEGAQNQGKKAEGAQNQGQKGEGAQNQGKKTEGAQGKKAERSPNQGKKGEGAPIQGKKADSVANQGTKVEGITNQGKKAEGSPSEGKKAEGSPNQGKKADAAANQGKKTESASVQGRNTDVAQSPEAPKQEAPAKKKSGSKKKGEPGPPDADGPLYLPYKTLVSTVGSMVFNEGEAQRLIEILSEKAGIIQDTWHKATQKGDPVAILKRQLEEKEKLLATEQEDAAVAKSKLRELNKEMAAEKAKAAAGEAKVKKQLVAREQEITAVQARMQASYREHVKEVQQLQGKIRTLQEQLENGPNTQLARLQQENSILRDALNQATSQVESKQNAELAKLRQELSKVSKELVEKSEAVRQDEQQRKALEAKAAAFEKQVLQLQASHRESEEALQKRLDEVSRELCHTQSSHASLRADAEKAQEQQQQMAELHSKLQSSEAEVRSKCEELSGLHGQLQEARAENSQLTERIRSIEALLEAGQARDAQDVQASQAEADQQQTRLKELESQVSGLEKEAIELREAVEQQKVKNNDLREKNWKAMEALATAEQACKEKLLSLTQAKEESEKQLCLIEAQTMEALLALLPELSVLAQQNYTEWLQDLKEKGPTLLKHPPAPAEPSSDLASKLREAEETQSTLQAECDQYRSILAETEGMLRDLQKSVEEEEQVWRAKVGAAEEELQKSRVTVKHLEEIVEKLKGELESSDQVREHTSHLEAELEKHMAAASAECQNYAKEVAGLRQLLLESQSQLDAAKSEAQKQSDELALVRQQLSEMKSHVEDGDIAGAPASSPEAPPAEQDPVQLKTQLEWTEAILEDEQTQRQKLTAEFEEAQTSACRLQEELEKLRTAGPLESSETEEASQLKERLEKEKKLTSDLGRAATRLQELLKTTQEQLAREKDTVKKLQEQLEKAEDGSSSKEGTSV
For B6, the “4. + IFNG mix” value came to 12 and the “4. mL1dL2 + Dox + IFNG” value stood at 4.

B7: EEF1A1 (protein)
chain: GKEKTHINIVVIGHVDSGKSTTTGHLIYKCGGIDKRTIEKFEKEAAEMGKGSFKYAWVLDKLKAERERGITIDISLWKFETSKYYVTIIDAPGHRDFIKNMITGTSQADCAVLIVAAGVGEFEAGISKNGQTREHALLAYTLGVKQLIVGVNKMDSTEPPYSQKRYEEIVKEVSTYIKKIGYNPDTVAFVPISGWNGDNMLEPSANMPWFKGWKVTRKDGNASGTTLLEALDCILPPTRPTDKPLRLPLQDVYKIGGIGTVPVGRVETGVLKPGMVVTFAPVNVTTEVKSVEMHHEALSEALPGDNVGFNVKNVSVKDVRRGNVAGDSKNDPPMEAAGFTAQVIILNHPGQISAGYAPVLDCHTAHIACKFAELKEKIDRRSGKKLEDGPKFLKSGDAAIVDMVPGKPMCVESFSDYPPLGRFAVRDMRQTVAVGVIKAVDKKAAGAGKVTKSAQKAQKAK
On to B7, for which the “4. + IFNG mix” value worked out at 4 and the “4. mL1dL2 + Dox + IFNG” value is 3.

The values above are taken from patent US20250339531A1, “DUX4 POLYPEPTIDES AND NUCLEIC ACIDS FOR TREATING INFLAMMATORY AND AUTOIMMUNE CONDITIONS” (Fred Hutchinson Cancer Center, priority 2021, published 2025).
